{"source": "patent US20110059076A1", "about": "“HUMAN SERUM ALBUMIN LINKERS AND CONJUGATES THEREOF” (priority 2008, published 2011)", "key": {"[1]": {"target": "T1, recombinant extracellular domain of ErbB3 (Homo sapiens, UniProt P21860)", "T1 construct": "Plates are coated with the recombinant extracellular domain of either ErbB2 or ErbB3", "test": "specificity competition ELISA on ErbB3-coated plates", "details": "half-maximal binding concentration of B2B3-1", "excerpt": "(§1) Plates are coated with the recombinant extracellular domain of either ErbB2 or ErbB3."}, "[2]": {"system": "10 tumor xenograft models", "test": "activity in 10 tumor xenograft models versus ErbB2 expression", "assay_type": "in vivo", "details": "low to high ErbB2"}, "[3]": {"system": "Ki67 in BT474-M3 breast tumor xenografts", "test": "Ki67 staining of xenograft tumors", "assay_type": "in vivo", "details": "30 mg/kg every 3 days, 4 doses"}, "[4]": {"system": "p27^kip1 in BT474-M3 breast tumor xenografts", "test": "p27kip1 staining of xenograft tumors", "assay_type": "in vivo", "details": "30 mg/kg every 3 days, 4 doses"}, "[5]": {"system": "Calu-3 (human lung adenocarcinoma) xenograft", "test": "Calu-3 xenograft model", "assay_type": "in vivo, mice", "details": "Calu-3, 30 mg/kg every 3 days", "excerpt": "(§2) Calu-3 (human lung adenocarcinoma; FIG. 17A), SKOV-3 (human ovarian adenocarcinoma; FIG. 17B), NCI-N87 (human gastric carcinoma; FIG. 17C), ACHN (human kidney adenocarcinoma; FIG. 17D), and MDA-MB-361 (human breast adenocarcinoma; FIG. 17E) xenograft model are shown."}, "[6]": {"test": "pharmacokinetics in Cynomolgus monkeys (dose range-finding toxicology study)", "assay_type": "in vivo, Cynomolgus monkey", "description": "Blood samples for pharmacokinetic analysis are also obtained from a dose range-finding toxicology study in female Cynomolgus monkeys. […] Sampling occurred prior to and 5 minutes after dosing on each dosing day (study days 1, 4, 7 and 10) to provide pre-dose and peak/trough concentrations, and at 1, 2, 4, 8, 24 and 48 hours after the end of the first infusion on day 1 and at 1, 2, 4, 8, 24, 48, 72 and 120 hours after the last infusion on day 10. For recovery animals dosed at 200 mg/kg serum samples are also collected at 168, 336 and 456 hours after the last infusion.\nCynomolgus monkey serum samples are assayed using the ErbB2/ErbB3 ELISA method described previously."}, "[7]": {"system": "pErbB3 and pAKT in BT-474-M3 cells", "test": "Western blot of heregulin induced ErbB3 activity in BT-474-M3 cells", "assay_type": "cell-based", "details": "BT-474-M3, 24 hours, 10 nM or 100 nM, with or without 5 nM HRG 1β EGF", "quoted_text": "Lysates are subjected to immunoblot analysis for ErbB3, pErbB3, AKT, and pAKT."}, "[8]": {"system": "Cyclin D1 in BT-474-M3 cells", "test": "Cyclin D1 Western blot", "assay_type": "cell-based", "details": "72 hours", "excerpt": "The cytoskeleton protein vinculin is used as a protein loading control in this experiment."}, "BT-474-M3 xenograft": {"system": "BT-474-M3 xenograft", "test": "combination with trastuzumab in BT-474-M3 xenograft model", "assay_type": "in vivo, athymic nude mice (nu/nu)", "details": "single agent", "protocol": "Mice receive a subcutaneous estrogen-releasing implant in the opposite flank (0.72 mg pellet, 60 day, slow-release, Innovative Research of America, Sarasota, Fla.) 24 h prior to the injection of 20×10^6 human BT-474-M3cells in PBS. Dosing is initiated when tumor growth is established (tumor volumes of approximately 400 mm^3). Tumors are measured twice a week using digital calipers. Tumor volume is calculated using the formula: π/6×(W^2×L), where W is the short diameter and L is the long diameter."}, "[9]": {"system": "wild type ADRr xenografts", "test": "wild type ADRr breast cancer xenograft model", "assay_type": "in vivo, nude mice", "details": "30 mg/kg every 3 days"}, "[10]": {"system": "BT-474-M3 xenograft tumors", "test": "q7d versus q3d dosing in BT-474-M3 xenografts", "assay_type": "in vivo, athymic nude mice (nu/nu)", "details": "intraperitoneal", "description": "Mice receive a subcutaneous estrogen-releasing implant in the opposite flank (0.72 mg pellet, 60 day, slow-release, Innovative Research of America, Sarasota, Fla.) 24 h prior to the injection of 20×10^6 human BT-474-M3cells in PBS. […] Tumors are measured twice a week using digital calipers. Tumor volume is calculated using the formula: π/6×(W^2×L), where W is the short diameter and L is the long diameter. […] PBS vehicle is used as a negative control."}, "[11]": {"target": "T2, recombinant extracellular domain of ErbB2 (Homo sapiens, UniProt P04626)", "T2 construct": "Plates are coated with the recombinant extracellular domain of either ErbB2 or ErbB3", "test": "specificity competition ELISA on ErbB2-coated plates", "details": "half-maximal binding concentration of B2B3-1", "excerpt": "as §1"}, "[12]": {"system": "pAKT in BT-474-M3 xenografts that have reduced PTEN activity", "test": "pAKT Western blot of PTEN deficient BT-474-M3 xenograft tumors", "assay_type": "in vivo", "details": "30 mg/kg B2B3-1 every 3 days or 10 mg/kg trastuzumab weekly", "quoted_text": "Equal quantities of protein are loaded in each lane and total protein levels are controlled by probing for PCNA."}, "BT474 breast tumor cells": {"system": "BT474 breast tumor cells", "test": "cell cycle analysis by propidium iodide flow cytometry", "assay_type": "cell-based", "details": "72 hours treatment", "description": "After the end of treatment, cells are trypsinized, gently resuspended in hypotonic solution containing propidium iodide and single cells are analyzed by flow cytometry. Cell cycle distribution in G1 and S phases is measured using curve-fitting algorithms designed for cell cycle analysis (FlowJo software cell cycle platform).\nAfter the end of treatment, cells are trypsinized, gently resuspended in hypotonic solution containing propidium iodide and single cells are analyzed by flow cytometry. Cell cycle distribution in G1 and S phases is measured using curve-fitting algorithms designed for cell cycle analysis (FlowJo software cell cycle platform, Tree Star, Inc.). […] In a second experiment, the number of cell colonies formed following treatment with B2B3-1 is studied. […] Media only or media including treatment is replenished every 3 days. After 14 days the number of colonies is counted and compared to untreated cells."}, "[13]": {"system": "NCI-N87 (human gastric carcinoma) xenograft", "test": "NCI-N87 xenograft model", "assay_type": "in vivo, mice", "details": "NCI-N87, 30 mg/kg every 3 days", "excerpt": "as §2"}, "[14]": {"system": "SKOV-3 (human ovarian adenocarcinoma) xenograft", "test": "SKOV-3 xenograft model", "assay_type": "in vivo, mice", "details": "SKOV-3, 30 mg/kg every 3 days", "excerpt": "as §2"}, "BT-474 cells": {"system": "BT-474 cells", "test": "cell impedance proliferation assay (RT-CES)", "assay_type": "cell-based", "details": "calculated 68 hours after treatment, read-out: IC50 of inhibition of cell impedance"}, "[15]": {"system": "phosphorylated ErbB3 in BT-474-M3 xenograft tumors", "test": "pErbB3 Western blot of xenograft tumors", "assay_type": "in vivo", "details": "30 mg/kg every 3 days, 4 doses, harvested 24 hours after final dose", "excerpt": "Equal quantities of protein are loaded in each lane and total protein levels are controlled by probing for beta tubulin."}, "[16]": {"system": "ACHN (human kidney adenocarcinoma) xenograft", "test": "ACHN xenograft model", "assay_type": "in vivo, mice", "details": "ACHN (4.5×10^4 ErbB2 receptors/cell), 30 mg/kg every 3 days", "excerpt": "as §2"}, "[17]": {"details": "Cynomolgus monkey (1st dose), 4 mg/kg"}, "[18]": {"details": "Cynomolgus monkey (1st dose), 20 mg/kg"}, "[19]": {"details": "Cynomolgus monkey (1st dose), 200 mg/kg"}, "[20]": {"details": "Cynomolgus monkey (4th dose), 4 mg/kg"}, "[21]": {"details": "Cynomolgus monkey (4th dose), 20 mg/kg"}, "[22]": {"details": "Cynomolgus monkey (4th dose), 200 mg/kg"}, "[23]": {"details": "Cynomolgus monkey (4th dose), 200 mg/kg, recovery animals"}}, "note": "“Also recorded” adds a separate entry of the source.", "data": [{"substance": "B2B3-1: bispecific scFv antibody fusion: anti-ErbB3 scFv H3 and anti-ErbB2 scFv B1D2 joined by a modified human serum albumin (HSA) linker", "values": [{"measurement": "blocking of binding to ErbB3-coated plates by soluble extracellular domains of EGFR, ErbB2, ErbB3 or ErbB4", "setting": "[1]", "value": "only soluble ErbB3 extracellular domain blocked; also recorded: binds specifically"}, {"measurement": "xenograft response in relation to ErbB2 expression levels", "setting": "[2]", "value": "correlates positively"}, {"measurement": "Ki67 expression compared to HSA treated tumors", "setting": "[3]", "value": "reduced expression pattern; also recorded: reduction"}, {"measurement": "nuclear staining for p27^kip1 compared to HSA control tumors", "setting": "[4]", "value": "Increased nuclear staining; also recorded: translocation of p27^kip1 to the nucleus"}, {"measurement": "tumor size reduction", "setting": "[5]", "value": "efficacious"}, {"measurement": "AUC", "setting": "[6]; [17]", "value": "3.44E+03", "unit": "hr-μg/ml"}, {"measurement": "Clearance", "setting": "[6]; [17]", "value": 28.1, "unit": "mL/day/kg"}, {"measurement": "T½β", "setting": "[6]; [17]", "value": 39.1, "unit": "h"}, {"measurement": "AUC", "setting": "[6]; [18]", "value": "2.29E+04", "unit": "hr-μg/ml"}, {"measurement": "Clearance", "setting": "[6]; [18]", "value": 21.1, "unit": "mL/day/kg"}, {"measurement": "T½β", "setting": "[6]; [18]", "value": 33.1, "unit": "h"}, {"measurement": "AUC", "setting": "[6]; [19]", "value": "3.18E+05", "unit": "hr-μg/ml"}, {"measurement": "Clearance", "setting": "[6]; [19]", "value": 15.4, "unit": "mL/day/kg"}, {"measurement": "T½β", "setting": "[6]; [19]", "value": 68.8, "unit": "h"}, {"measurement": "AUC", "setting": "[6]; [20]", "value": "7.20E+03", "unit": "hr-μg/ml"}, {"measurement": "Clearance", "setting": "[6]; [20]", "value": 14.4, "unit": "mL/day/kg"}, {"measurement": "T½β", "setting": "[6]; [20]", "value": 44.9, "unit": "h"}, {"measurement": "AUC", "setting": "[6]; [21]", "value": "8.20E+04", "unit": "hr-μg/ml"}, {"measurement": "Clearance", "setting": "[6]; [21]", "value": 6, "unit": "mL/day/kg"}, {"measurement": "T½β", "setting": "[6]; [21]", "value": 122.5, "unit": "h"}, {"measurement": "AUC", "setting": "[6]; [22]", "value": "5.72E+05", "unit": "hr-μg/ml"}, {"measurement": "Clearance", "setting": "[6]; [22]", "value": 8.4, "unit": "mL/day/kg"}, {"measurement": "T½β", "setting": "[6]; [22]", "value": 69.7, "unit": "h"}, {"measurement": "AUC", "setting": "[6]; [23]", "value": "5.99E+05", "unit": "hr-μg/ml"}, {"measurement": "Clearance", "setting": "[6]; [23]", "value": 8.16, "unit": "mL/day/kg"}, {"measurement": "T½β", "setting": "[6]; [23]", "value": 66.6, "unit": "h"}, {"measurement": "Mean half-life estimates", "setting": "[6]; Cynomolgus monkey, day 1, 4, 20 or 200 mg/kg", "value": "38.3 to 67.2", "unit": "h"}, {"measurement": "inhibition of pAKT", "setting": "[7]", "value": "in a ligand dependent manner"}, {"measurement": "inhibition of pErbB3", "setting": "[7]", "value": "in a ligand dependent manner"}, {"measurement": "levels of Cyclin D1 compared to untreated cells", "setting": "[8]", "value": "decrease"}, {"measurement": "mice with completely regressed tumors", "setting": "BT-474-M3 xenograft; B2B3-1 3 mg/kg q3d", "value": "0 out of 10"}, {"measurement": "mice with completely regressed tumors", "setting": "BT-474-M3 xenograft; B2B3-1 10 mg/kg q3d", "value": "0 out of 10"}, {"measurement": "xenograft response", "setting": "[9]", "value": "no response; also recorded: non-responder"}, {"measurement": "efficacy of q7d dosing (66, 132, 198 mg/kg) versus 30 mg/kg q3d", "setting": "[10]", "value": "equivalent efficacy"}, {"measurement": "blocking of binding to ErbB2-coated plates by soluble extracellular domains of EGFR, ErbB2, ErbB3 or ErbB4", "setting": "[11]", "value": "only soluble ErbB2 extracellular domain blocked; also recorded: binds specifically"}, {"measurement": "pAKT in tumors (densitometry of Western blot)", "setting": "[12]", "value": "significantly less pAKT; also recorded: able to inhibit phosphorylation"}, {"measurement": "population of cells in G1 phase", "setting": "BT474 breast tumor cells", "value": "increase; also recorded: G1 arrest"}, {"measurement": "population of cells in S phase", "setting": "BT474 breast tumor cells", "value": "modestly decrease"}, {"measurement": "tumor size reduction", "setting": "[13]", "value": "efficacious"}, {"measurement": "tumor size reduction", "setting": "[14]", "value": "efficacious"}, {"measurement": "IC50", "setting": "BT-474 cells", "value": 33, "unit": "nM"}, {"measurement": "pErbB3 in tumors compared to HSA treated tumors", "setting": "[15]", "value": "significantly less pErbB3"}, {"measurement": "tumor size reduction", "setting": "[16]", "value": "worked less well"}]}]}
